This note sets out measurements from the supplement of paper PMC9112550, “Optimization of the antimicrobial peptide Bac7 by deep mutational scanning” (BMC Biology, 2022).

The subject of the series is Escherichia coli TOP10. The series can be described thus: shrunken log2 fold change of peptide-encoding DNA abundance (4.5 h post-induction vs induction); higher = less antimicrobial activity (less host growth inhibition). The following applies: time post-induction: 4.5 h; library: site-saturation at positions 5, 18, 19, 20.
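Note: peptides expressed intracellularly from a pBAD plasmid library in pooled LB shake-flask culture, induced with 0.3% L-arabinose, DNA abundance read by NGS, three biological replicates, DESeq2 with apeglm shrinkage.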

As to RRIRVRPPRLPRPRPRPCYQPRP, the “shrunken log2 fold change” value is -0.142.
Regarding RRIRTRPPRLPRPRPRPKWLPRP, the “shrunken log2 fold change” value turned out to be 0.247.
As to RRIRYRPPRLPRPRPRPPPHPRP, the “shrunken log2 fold change” value was 0.737.
To RRIRTRPPRLPRPRPRPRGIPRP belongs -0.0284; to RRIRLRPPRLPRPRPRPPPWPRP, 0.892; to RRIRTRPPRLPRPRPRPGRPPRP, 0.217.
Consider RRIRARPPRLPRPRPRPPYKPRP, for which the “shrunken log2 fold change” value was 0.0849.
With RRIRIRPPRLPRPRPRPYYKPRP, the “shrunken log2 fold change” value was -1.01.
The same measure for RRIRYRPPRLPRPRPRPFTTPRP: 0.0402.
Take RRIRARPPRLPRPRPRPFYHPRP: the “shrunken log2 fold change” value was -0.462.
As to RRIRPRPPRLPRPRPRPARNPRP, the “shrunken log2 fold change” value worked out at 0.328.
Take RRIRQRPPRLPRPRPRPMGDPRP: the “shrunken log2 fold change” value is 0.0563.
For the sequence RRIRCRPPRLPRPRPRPWRDPRP, the “shrunken log2 fold change” value was -0.0798.
Regarding RRIRVRPPRLPRPRPRPKKEPRP, the “shrunken log2 fold change” value worked out at 0.18.
With RRIRKRPPRLPRPRPRPSVEPRP, the “shrunken log2 fold change” value was 0.0133.
For RRIRWRPPRLPRPRPRPMFAPRP, the “shrunken log2 fold change” value came to 0.216.
The same measure for RRIRSRPPRLPRPRPRPSCPPRP: -0.494.
As to RRIRTRPPRLPRPRPRPYSGPRP, the “shrunken log2 fold change” value is -0.00196.
The same measure for RRIRHRPPRLPRPRPRPHEDPRP: 0.0316; for RRIRHRPPRLPRPRPRPPKVPRP: 0.0708.
Turning to RRIRGRPPRLPRPRPRPRCMPRP, the “shrunken log2 fold change” value came to 0.364.
Regarding RRIRERPPRLPRPRPRPLPHPRP, the “shrunken log2 fold change” value is -0.438.
For RRIRRRPPRLPRPRPRPHHCPRP, the “shrunken log2 fold change” value was -0.0737.
To RRIRPRPPRLPRPRPRPPMHPRP belongs 0.359.
With RRIRHRPPRLPRPRPRPDACPRP, the “shrunken log2 fold change” value was -0.0498.
As for RRIRPRPPRLPRPRPRPPIVPRP, the “shrunken log2 fold change” value came to 0.161.
As to RRIRVRPPRLPRPRPRPDPCPRP, the “shrunken log2 fold change” value is -0.0596.
With RRIRYRPPRLPRPRPRPSDKPRP, the “shrunken log2 fold change” value was -0.194.
To RRIRVRPPRLPRPRPRPSHGPRP belongs -0.143; to RRIRSRPPRLPRPRPRPSFCPRP, -0.251; to RRIRNRPPRLPRPRPRPKSSPRP, -0.0182.
To RRIRYRPPRLPRPRPRPCDIPRP belongs -0.334; to RRIRRRPPRLPRPRPRPMGLPRP, -0.0617; to RRIRERPPRLPRPRPRPTSKPRP, -0.426.
For RRIRERPPRLPRPRPRPQGGPRP, the “shrunken log2 fold change” value is -0.0586.
Consider RRIRLRPPRLPRPRPRPFFFPRP, for which the “shrunken log2 fold change” value is 0.343.
With RRIRSRPPRLPRPRPRPMHDPRP, the “shrunken log2 fold change” value was -0.314.
Regarding RRIRMRPPRLPRPRPRPSTIPRP, the “shrunken log2 fold change” value was -0.23.
With RRIRHRPPRLPRPRPRPHATPRP, the “shrunken log2 fold change” value came out at 0.0228.
To RRIRERPPRLPRPRPRPLEYPRP belongs -0.494; to RRIRCRPPRLPRPRPRPFPMPRP, -0.274.
To RRIRRRPPRLPRPRPRPHCNPRP belongs -0.135.
RRIRIRPPRLPRPRPRPQKKPRP: the “shrunken log2 fold change” value is -0.0235.
In the case of RRIRARPPRLPRPRPRPHTCPRP, the “shrunken log2 fold change” value was -0.29.
On to RRIRPRPPRLPRPRPRPWDNPRP, for which the “shrunken log2 fold change” value was -0.00581.
RRIRTRPPRLPRPRPRPQVDPRP: the “shrunken log2 fold change” value is -0.0209.
To RRIRCRPPRLPRPRPRPFEQPRP belongs -0.669.
Regarding RRIRPRPPRLPRPRPRPYRVPRP, the “shrunken log2 fold change” value was determined as 0.101.
The same measure for RRIRWRPPRLPRPRPRPLSTPRP: 0.383; for RRIRLRPPRLPRPRPRPGHTPRP: 0.183; for RRIRTRPPRLPRPRPRPPNQPRP: 0.185.
To RRIRGRPPRLPRPRPRPDNTPRP belongs 0.204; to RRIRSRPPRLPRPRPRPEIFPRP, -0.432; to RRIRSRPPRLPRPRPRPQGHPRP, 0.00442.
With RRIRCRPPRLPRPRPRPIMLPRP, the “shrunken log2 fold change” value was -0.587.
As for RRIRSRPPRLPRPRPRPIEGPRP, the “shrunken log2 fold change” value was -0.0107.
On to RRIRRRPPRLPRPRPRPNDGPRP, for which the “shrunken log2 fold change” value came out at 0.0979.
As for RRIRLRPPRLPRPRPRPSGPPRP, the “shrunken log2 fold change” value was -0.216.
Regarding RRIRTRPPRLPRPRPRPRNAPRP, the “shrunken log2 fold change” value stood at 0.0522.
In the case of RRIRERPPRLPRPRPRPCQKPRP, the “shrunken log2 fold change” value is -0.0135.
For the sequence RRIRCRPPRLPRPRPRPHILPRP, the “shrunken log2 fold change” value is -0.476.
To RRIRMRPPRLPRPRPRPVNRPRP belongs 0.105; to RRIRHRPPRLPRPRPRPYNDPRP, -0.0648.
In the case of RRIRMRPPRLPRPRPRPSVMPRP, the “shrunken log2 fold change” value is -0.194.
Turning to RRIRERPPRLPRPRPRPTVPPRP, the “shrunken log2 fold change” value is -0.237.
Take RRIRIRPPRLPRPRPRPLREPRP: the “shrunken log2 fold change” value was determined as 0.255.
In the case of RRIRLRPPRLPRPRPRPKASPRP, the “shrunken log2 fold change” value is -0.231.
For RRIRHRPPRLPRPRPRPDFQPRP, the “shrunken log2 fold change” value is -0.00193.
For the sequence RRIRFRPPRLPRPRPRPYIMPRP, the “shrunken log2 fold change” value was -1.09.
For RRIRDRPPRLPRPRPRPTHVPRP, the “shrunken log2 fold change” value was 0.244.
To RRIRRRPPRLPRPRPRPTGIPRP belongs 0.872; to RRIRERPPRLPRPRPRPYFTPRP, -0.971; to RRIRERPPRLPRPRPRPMFSPRP, -0.104.
To RRIRSRPPRLPRPRPRPISRPRP belongs -0.416; to RRIRPRPPRLPRPRPRPWQAPRP, -0.0268; to RRIRIRPPRLPRPRPRPPAGPRP, 0.518.
Consider RRIRSRPPRLPRPRPRPQCTPRP, for which the “shrunken log2 fold change” value was determined as 0.294.
Turning to RRIRNRPPRLPRPRPRPTTFPRP, the “shrunken log2 fold change” value was -0.337.
The same measure for RRIRARPPRLPRPRPRPMVLPRP: -0.118; for RRIRFRPPRLPRPRPRPRAHPRP: 0.00718; for RRIRERPPRLPRPRPRPRQWPRP: -0.0536.
Turning to RRIRCRPPRLPRPRPRPTMHPRP, the “shrunken log2 fold change” value is -0.112.
For RRIRFRPPRLPRPRPRPAEYPRP, the “shrunken log2 fold change” value was -0.397.
Turning to RRIRARPPRLPRPRPRPTLMPRP, the “shrunken log2 fold change” value was 0.768.
Take RRIRSRPPRLPRPRPRPTQEPRP: the “shrunken log2 fold change” value came out at 0.342.
Consider RRIRKRPPRLPRPRPRPYLDPRP, for which the “shrunken log2 fold change” value is -0.0998.
In the case of RRIRCRPPRLPRPRPRPRPCPRP, the “shrunken log2 fold change” value was 0.339.
For the sequence RRIRHRPPRLPRPRPRPGFPPRP, the “shrunken log2 fold change” value was found to be 0.336.
Regarding RRIRRRPPRLPRPRPRPMGRPRP, the “shrunken log2 fold change” value stood at 0.464.
Turning to RRIRYRPPRLPRPRPRPEDKPRP, the “shrunken log2 fold change” value is -0.0222.
The same measure for RRIRRRPPRLPRPRPRPEEAPRP: 1.51; for RRIRFRPPRLPRPRPRPIVPPRP: 0.0537; for RRIRKRPPRLPRPRPRPEPRPRP: 0.991.
On to RRIRHRPPRLPRPRPRPFMHPRP, for which the “shrunken log2 fold change” value is -0.377.
Regarding RRIRPRPPRLPRPRPRPLQCPRP, the “shrunken log2 fold change” value is -1.25.
In the case of RRIRNRPPRLPRPRPRPWDGPRP, the “shrunken log2 fold change” value stood at 0.185.
To RRIRTRPPRLPRPRPRPLTNPRP belongs -0.0099; to RRIRWRPPRLPRPRPRPVRGPRP, 0.538; to RRIRTRPPRLPRPRPRPCKSPRP, 0.075.
For RRIRWRPPRLPRPRPRPYVKPRP, the “shrunken log2 fold change” value is -0.436.
In the case of RRIRTRPPRLPRPRPRPDTDPRP, the “shrunken log2 fold change” value was -0.138.
The same measure for RRIRRRPPRLPRPRPRPMAIPRP: 0.202.
The same measure for RRIRTRPPRLPRPRPRPWGKPRP: 0.201; for RRIRNRPPRLPRPRPRPAPTPRP: 0.809.
The same measure for RRIRCRPPRLPRPRPRPMRDPRP: 0.281; for RRIRKRPPRLPRPRPRPSVIPRP: -0.0922; for RRIRLRPPRLPRPRPRPYEFPRP: -0.111.
As to RRIRARPPRLPRPRPRPNEGPRP, the “shrunken log2 fold change” value was -0.175.
RRIRDRPPRLPRPRPRPPPDPRP: the “shrunken log2 fold change” value worked out at 1.14.
Regarding RRIRQRPPRLPRPRPRPVKMPRP, the “shrunken log2 fold change” value was -0.211.
The same measure for RRIRQRPPRLPRPRPRPFENPRP: -0.00804; for RRIRSRPPRLPRPRPRPGTVPRP: -0.0347.
In the case of RRIRHRPPRLPRPRPRPSEDPRP, the “shrunken log2 fold change” value is -0.00172.
Take RRIRSRPPRLPRPRPRPHIVPRP: the “shrunken log2 fold change” value is -0.243.
Consider RRIRTRPPRLPRPRPRPSTIPRP, for which the “shrunken log2 fold change” value is -0.386.
As for RRIRVRPPRLPRPRPRPSLNPRP, the “shrunken log2 fold change” value is -0.416.
As to RRIRGRPPRLPRPRPRPDASPRP, the “shrunken log2 fold change” value came to 1.34.
Take RRIRERPPRLPRPRPRPFVIPRP: the “shrunken log2 fold change” value was -0.478.
Consider RRIRVRPPRLPRPRPRPNPQPRP, for which the “shrunken log2 fold change” value was determined as 0.000771.
Consider RRIRTRPPRLPRPRPRPFVPPRP, for which the “shrunken log2 fold change” value amounted to 2.01.
Consider RRIRLRPPRLPRPRPRPPCQPRP, for which the “shrunken log2 fold change” value was found to be 0.062.
In the case of RRIRNRPPRLPRPRPRPTMCPRP, the “shrunken log2 fold change” value is -0.0233.
To RRIRARPPRLPRPRPRPAKFPRP belongs 0.168; to RRIRTRPPRLPRPRPRPRCVPRP, -0.0783.
With RRIRNRPPRLPRPRPRPFCEPRP, the “shrunken log2 fold change” value was -0.28.
